From the nanobody polyreactivity screen of Harvey et al. (2022)

Test: yeast display, Sf9 membrane polyspecificity reagent, FACS + sequencing; frameworks hold sequencing errors
Method in brief: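 Using colony PCR, genes from sorted yeast display clones were amplified, then sequenced on MiSeq at 2 × 250 and filtered by CDR length. The clones had been stained with 10% biotinylated, detergent-solubilized Sf9 membrane reagent for 1 hour at 4 °C and sorted by FACS into low and high (top ~1%) gates on anti-HA and streptavidin fluorescence. Polyreactivity labels come from the gate of origin.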

Sequence | polyreactivity (PSR sort gate)
QVQLVESSAGLVQAGGSLRLSCDASGSTFFYYAMGWYRQAPGKERELVAAISLSDGNTYYADSVKGRFTISRDNAKNTVYLQMNSLKPEDTAVYYCNRVGSQSMKYWGQGTQVTVSS | low polyreactivity
QVQLVESSGGLVQAGGRLRLSCAASGSTFRGNAMGWYRQAPGKERELVAAITGSGGRTYYADSVKGRFTISRDNAKNTVYLQMNSLKPEDTAVYYCAARTPNIGGIYGYWGQGTQVSVSS | high polyreactivity
QVQLVESSGGLVQAGGSLRLICAASGRIFSRYPMGWYRKAPGKERELVAAITYSGGNTYYADSVKGRFTISRDYAKNTVYLQMNSLKPEDTAVYYCNAYRPYYSYVSHEHYYWGQGTQVTVSS | high polyreactivity
QVQLVESSGGLVQAGGSLRLSCAASGSIFPSNAMGWYRQAPGKERELVARITGGGGNTYYADSVKGRFTISRDNAKNTVYLQMNSLKPEDTAVYYCAADYTNWKTGSNEMYYWGQGTQVTVSS | low polyreactivity
QVQLVESVGCLVQAGGSLRLSCAASGFNFGYNAMGWYRQAPGKERELVAAITWIGGTTYYADSVKGRFTISRYNAKYTVYLQMNILKPEDTAVDYCNALRRGVRDPYGYWGLGTQVTVSS | high polyreactivity
QVQLVESVGCLVQAGGSLRLSCDASGIIFNQNTMGWYRPAPGKERQLVAAITSSVGSTYYADSVKGRFTISRDNAKNTVYLQMNSLKPEVTAVYYCAATGWVYRRSRDYWGQGTQVTVSS | low polyreactivity
QVQLVESVGCLVQARGSLRLSCAASGFTFPHYAMGWYRQAPGKERELVAVISWSGSSTYYADSVKGRFTISRDNAKNTVYLKMNSLKPVVNAVYYCNTRKLYQVDYDYWGQGSQVTVSS | high polyreactivity
QVQLVESVGGIVQAGGSLRLSCAASGSTRYNAMGWYIQAPGKERELVAYIRGNAGSTYYADSVKGRFTISRDNAKNTVYLQMNSLKPEDTAVYYCNARYWYRYGGYKPVGGYYWGQGTQVTVSS | high polyreactivity
QVQLVESVGGLDQAGGSLPVSCAASGLTFTGYTMGWYRQAPWKERELVATISGSGGNTDYADSVKARFTISRDKAKNTVDLQMNSLKPEDTAVYYCASRRSGPLVLYYYWGQGTQVTVSS | low polyreactivity
QVQLVESVGGLDQAGGSLRLTCAASVSIFRNYAMGWYRQAPGKERELVASIRYSGGRTNYADSVKGRFTISRDNAKNTVYVPMNSLTPEDTAVYYCAAATHYWYFYSFKDKSGFRGYYWGQGTHVTVSS | high polyreactivity
QVQLVESVGGLFQAGGSLRLSCAASGSTFDYYSMVWYRQAPGKERELVAGIDSAGSTNYADSVKGRFTISRDNAKNTVYLQMNSLKTGRYRGLYCNVGKTITTYAFPTFDYWGQGTQVTVSS | low polyreactivity
QVQLVESVGGLFQAGRSLRLSGAASGTTFVWNAMGWYRPAPGKERELVATITLSTGSTYYADSVKGRFTISRDNAKNSVYLQMNSLKPEDTAVYYGNTEIYVDIISDYGYWGQGTQVTVSS | low polyreactivity
QVQLVESVGGLLQAGGSLRVSCAASGFTFYRYAMGWYRQAPGKERELVAAITRGGSTNYADSVKRRFTISRDNAKKTVYLQMNSLKPEDTAVYYCAVVSQRTPLRGDYWGQGTQVTVSS | high polyreactivity
QVQLVESVGGLVEAGGSLRLSCASSGFISSHYAMGWYRQAPGKESELVAAITSGGSTYYADSVKGRFTISRDNAKNTVYLQMNSLKPEDTAVYYCAAYYRRWPRRYDYWGQGTQVTVSS | high polyreactivity
QVQLVESVGGLVEAGRILRLSCAATGSTFPYNDLGWYRQAPGKQRELVADISGDSGSTYYADSVKGRFTISRDNAKNTVYLQMKSLKPEDTAVYYCAAEGLHYAGDYGTGYDNWGQGTQLTVSS | low polyreactivity
QVQLVESVGGLVQAGGCLRITCAASGSTSDANAMGWYRTATGKERELVAAITTGGSTNYADSVKGRFTISRDNAKNTVFLQMNSLKPEDTAVFYCAVDLLRMTGDRGHDYWGQGTQVTVSS | low polyreactivity
QVQLVESVGGLVQAGGILRLSCAASGRTFTLNAMGWYRQAPGKERELVATISRRGGSTYYADSVKGRFTISRDNAKNTVYLQMISLKPEDTAVYDCNVDRLGKRYDNWGQGSQVTVSS | low polyreactivity
QVQLVESVGGLVQAGGILRLSCAASGYTFGGSAKGWYRPAPGKERELVAAITRRGGSTYYADSVKGRFTISRDNAKNTVYLQMNSLKPEDTAVYYCAKRSGSYSYPAVGGWGLGYWGHGTQVTVSS | high polyreactivity
QVQLVESVGGLVQAGGRLRLSCAASAFIFTSYAMGLYRQAPGKDRELVAAISKRGGSTYYADSVKGRFTISRDYAKNTDYLQMHSLKPEDTAVYYCATRYPQPYSPGYSYDYWGQGTQVTVSS | high polyreactivity
QVQLVESVGGLVQAGGSLPLTCAASGYTIGPNVMGWYRQAPGKERELVASITSGTSTYYADSVKGRFTISRDNAKNTVYLQMNSLKPEDTAVYYCAAKYSFGRTRWYGYWGQGTQVTVSS | high polyreactivity
QVQLVESVGGLVQAGGSLRLICAASGSIFDLNAMGWYRQAPGKEREFVAAISSGGGTYYADSVKGRFTISRDNAKNTVYLQKNSLKPEDTAVYYCAFELPELYYYFAYEYWGQGTQVTVSS | high polyreactivity
QVQLVESVGGLVQAGGSLRLRCSASGSIFKYNAMGWYRQAPGKVRELVADITRSGGRTYYADSVKGRFTISRDNEKNTVYVQMNSLKTEDTAVYYCYAVTPTTLGDYWGQGTQVTVSS | high polyreactivity
QVQLVESVGGLVQAGGSLRLSCAASGFIFFFYAMGWYRQAPGKERELVAAISDGVSTYYADSVKGRFTISSDNAKNTVYLQMNSLKPEDTAVYYCAVSRGDEPEFDYWGQGTQVTVSS | low polyreactivity
QVQLVESVGGLVQAGGSLRLSCAASGFIILINVMGWYRKAPGKERELVAVITGGGTTNYADSVKGRFTISRDNAKNTVYLQMNSLKPEDTAVYYCAVDAGAGDNDYWGQGTQVTVSS | low polyreactivity
QVQLVESVGGLVQAGGSLRLSCAASGFTFQYYALGWYRQAPGKERELVAAISWTGGRTYYADSVKGRFTISRDNAKNTVYLQMNSLKPEDTAVYYCNKVLYYYNSGEYDYWGQGTQVTVSS | high polyreactivity
QVQLVESVGGLVQAGGSLRLSCAASGFTFTWYDMGWYRQAPGKERELVAAITTDGGSTYYADSVKGRFTISRDNATNTVYLQMNSLKPEDTEVYYCAAAGYLPFPVEYEYWGQGTQVTVSS | high polyreactivity
QVQLVESVGGLVQAGGSLRLSCAASGFTFYVYAMGWYRQAPGKERELVAAISRGGSTYYADSVKGRFTISRDNAKNTVYLQMNSLKPEDTAVYYCNRVPYVSSSKVRYSNGFDYWGQGTLVTVSS | low polyreactivity
QVQLVESVGGLVQAGGSLRLSCAASGIIFRANAMGWYRQAPGKERELVAAISGRGSSTTYADSVKGRFTISRDNAKNTVYLQMNSLKPEDTAVYYCAAGYGKWFATWRSQKYDYWGQGTQVTVSS | high polyreactivity
QVQLVESVGGLVQAGGSLRLSCAASGITFFNYAMGWYRQAPGKERELVARINWSGGSTYYADSVTGRFTISRDNAKNTVYLQMNSLKPEDTAVYYCAARYWLPRGRRYDYWGQGTQVTVSS | high polyreactivity
QVQLVESVGGLVQAGGSLRLSCAASGITFPYYAMGWYRQAPGKERELVAAISRGDSTYYADSVKGRFTISRDNAKNTVYLQMNSLKPEDTAVYYCAARYGRYWSSCGSWTPYGYWGQGTQVTVSS | high polyreactivity
